Laboratory results reported in patent publication US20250206795.

Test system: T1, Mouse proBDNF-G-CSF-Tr protein
T1 sequence: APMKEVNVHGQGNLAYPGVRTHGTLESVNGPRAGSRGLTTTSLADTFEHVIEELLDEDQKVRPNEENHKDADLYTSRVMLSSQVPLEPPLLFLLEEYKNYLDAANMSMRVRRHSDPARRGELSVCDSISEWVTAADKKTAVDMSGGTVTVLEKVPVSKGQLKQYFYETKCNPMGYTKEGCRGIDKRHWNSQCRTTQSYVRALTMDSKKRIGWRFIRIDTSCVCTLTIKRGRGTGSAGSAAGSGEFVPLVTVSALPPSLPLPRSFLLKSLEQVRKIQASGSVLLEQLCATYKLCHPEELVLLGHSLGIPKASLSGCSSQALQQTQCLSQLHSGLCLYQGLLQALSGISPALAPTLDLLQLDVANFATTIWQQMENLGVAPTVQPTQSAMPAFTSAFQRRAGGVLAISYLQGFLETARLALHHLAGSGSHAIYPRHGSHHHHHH

furin
enzymatic cleavage (SDS PAGE and Western blot with anti-4-His antibodies), 1 Unit furin, 30 C, 4 hours: furin effectively cleaved the proBDNF-G-CSF-Tr molecule to yield BDNF-G-CSF-Tr
